Results published in patent US20200283478A1.

Target: PCSK9Δhelix (human)
Assay: phage spot ELISA

Chain of PCSK9Δhelix (human) (prodomain, as listed by the source mutant limits assumed, chain 1 of 2): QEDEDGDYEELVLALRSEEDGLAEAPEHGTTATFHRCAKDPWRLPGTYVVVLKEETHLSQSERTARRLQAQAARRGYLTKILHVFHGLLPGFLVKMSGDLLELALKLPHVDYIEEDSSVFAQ
Chain of PCSK9Δhelix (human) (chain, as listed by the source mutant limits assumed, chain 2 of 2): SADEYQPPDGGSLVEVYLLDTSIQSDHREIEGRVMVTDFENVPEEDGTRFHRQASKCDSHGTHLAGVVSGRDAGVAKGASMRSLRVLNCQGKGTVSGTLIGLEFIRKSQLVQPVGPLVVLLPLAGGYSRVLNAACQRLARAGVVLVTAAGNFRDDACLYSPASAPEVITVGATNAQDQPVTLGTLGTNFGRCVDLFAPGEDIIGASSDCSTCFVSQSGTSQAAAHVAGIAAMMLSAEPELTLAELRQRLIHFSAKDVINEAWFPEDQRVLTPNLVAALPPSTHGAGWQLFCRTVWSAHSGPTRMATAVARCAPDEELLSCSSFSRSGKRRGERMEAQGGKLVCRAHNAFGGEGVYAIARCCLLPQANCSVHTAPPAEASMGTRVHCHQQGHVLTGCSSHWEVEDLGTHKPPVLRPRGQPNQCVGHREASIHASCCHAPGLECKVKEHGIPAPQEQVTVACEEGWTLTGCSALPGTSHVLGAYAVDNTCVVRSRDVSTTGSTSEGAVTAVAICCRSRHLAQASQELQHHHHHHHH

Row | ELISA | s/n ratio | s/n | Binder
1 | 2.76 | 1.49 | – | TAFTSWEEYLDWVGSGCMEAWQCSLA [SEQ ID NO 337]
2 | 0.657 | 5.01 | – | SGDFIPWNLVRIGLLR [SEQ ID NO 385]
3 | 1.21 | – | 1.85 | SGVCSDHYIGGKEVRC [SEQ ID NO 378]
